Residue numbers refer to the chain shown, from its start. Values belong to the binder of their own block, whether it stands above or below them.
Legend:
Conditions in all cases: both partners purified
[1] = molecular target: T1, C3dg (UniProt P01024 955-1303); assay: SPR; C3b deposited on a CM5 chip (amine-coupled seed, then convertase-mediated deposition to about 5000 RU), iC3b and C3dg made from it on the chip; αI domains injected as dilution series, 120 s; Biacore T200, 25 °C; HBST (10 mM HEPES, 150 mM NaCl, 0.005% Tween-20, pH 7.4) with 1 mM MgCl2; Langmuir 1:1 fit, KD calculated
T1 construct: Held on the chip through the thioester-mediated deposit of its parent C3b; also called C3dg fragment; source: made on the SPR chip by co-injecting CR1 and factor I

[2] = molecular target: T2, C3b (UniProt P01024 23-667; P01024 749-1663); assay: as above
T2 construct: A seed of about 100 RU C3b was amine-coupled; further C3b was deposited via its thioester moiety to about 5000 RU; also called C3b fragment; C3-derived opsonin; source: bought: Complement Technology (C3b, C3); deposited on the SPR chip from C3 by the FB/FD convertase

[3] = molecular target: T3, ICAM-2 (recombinant, Sino Biological 10332-H03H) (UniProt P13598 25-223); assay: SPR; ICAM-1, ICAM-2, ICAM-3 amine-coupled to a CM5 chip; αI domains injected; 25 °C; HBST with 1 mM MgCl2
T3 construct: ICAM-2, bought recombinant protein; also called intercellular adhesion molecule 2; source: bought: Sino Biological
T3 sequence (looked up): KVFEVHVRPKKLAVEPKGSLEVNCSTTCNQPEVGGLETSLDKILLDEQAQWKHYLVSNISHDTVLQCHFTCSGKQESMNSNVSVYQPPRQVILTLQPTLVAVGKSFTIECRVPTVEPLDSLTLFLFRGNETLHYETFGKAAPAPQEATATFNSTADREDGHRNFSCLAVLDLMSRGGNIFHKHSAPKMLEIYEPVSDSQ

[4] = molecular target: T4, ICAM-1 (recombinant, Sino Biological 10346-H03H) (UniProt P05362 28-480); assay: as above
T4 construct: ICAM-1, bought recombinant protein; also called intercellular adhesion molecule 1; source: bought: Sino Biological
T4 sequence (P05362 28-480): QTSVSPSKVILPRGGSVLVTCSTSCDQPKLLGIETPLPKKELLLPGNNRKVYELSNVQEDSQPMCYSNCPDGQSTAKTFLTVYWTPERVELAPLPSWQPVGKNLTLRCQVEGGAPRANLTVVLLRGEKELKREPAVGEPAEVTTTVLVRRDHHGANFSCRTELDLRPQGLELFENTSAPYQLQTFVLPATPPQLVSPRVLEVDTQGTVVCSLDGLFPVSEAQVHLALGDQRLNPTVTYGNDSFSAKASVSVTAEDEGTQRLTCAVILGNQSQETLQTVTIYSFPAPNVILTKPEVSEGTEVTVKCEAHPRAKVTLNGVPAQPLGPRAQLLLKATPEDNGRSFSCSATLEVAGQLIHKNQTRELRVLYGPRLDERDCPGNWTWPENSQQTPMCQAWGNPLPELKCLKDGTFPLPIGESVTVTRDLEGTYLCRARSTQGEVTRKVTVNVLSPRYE

- Kd [1]: 30.4 µM
- Kd [2]: 55.5 µM
B1: CR4 αXI domain, wild type (WT) (domain or fragment, UniProt P20702 148-336, looked up)
chain: QEQDIVFLIDGSGSISSRNFATMMNFVRAVISQFQRPSTQFSLMQFSNKFQTHFTFEEFRRSSNPLSLLASVHQLQGFTYTATAIQNVVHRLFHASYGARRDAAKILIVITDGKKEGDSLDYKDVIPMADAAGIIRYAIGVGLAFQNRNSWKELNDIASKPSQEHIFKVEDFDALKDIQNQLKEKIFAI
notes: integrin alpha-X (CD11c) αI domain, Q148-I336; also called αXI WT; WT αXI

- Kd [1]: 3.8 µM
- Kd [2]: 2.2 µM
B2: CR4 αXI domain, high-affinity (HA) variant p.I333G (domain or fragment, UniProt P20702 148-336, looked up)
chain: B1 chain with I186G
notes: integrin alpha-X (CD11c) αI domain, Q148-I336; Addgene numbers tied to αLI and αXI by the order of the sentence; also called αXI HA; HA αXI

- binding result [3]: binds
- Kd [1]: 1.4 µM
- Kd [2]: 11.6 µM
B3: CR3 αMI domain, high-affinity (HA) variant p.I332G (domain or fragment)
chain: QEDSDIAFLIDGSGSIIPHDFRRMKEFVSTVMEQLKKSKTLFSLMQYSEEFRIHFTFKEFQNNPNPRSLVKPITQLLGRTHTATGIRKVVRELFNITNGARKNAFKILVVITDGEKFGDPLGYEDVIPEADREGVIRYVIGVGDAFRSEKSRQELNTIASKPPRDHVFQVNNFEALKTIQNQLREKGFA
notes: integrin alpha-M (CD11b) αI domain, Q146-A334; beads captured by the His-tag; also called αMI HA; HA αMI

- binding result [4]: binds
B4: CD11d αDI domain, high-affinity (HA) variant p.I332G (domain or fragment, UniProt Q13349 145-334, looked up)
chain: PHQEMDIVFLIDGSGSIDQNDFNQMKGFVQAVMGQFEGTDTLFALMQYSNLLKIHFTFTQFRTSPSQQSLVDPIVQLKGLTFTATGILTVVTQLFHHKNGARKSAKKILIVITDGQKYKDPLEYSDVIPQAEKAGIIRYAIGVGHAFQGPTARQELNTISSAPPQDHVFKVDNFAALGSIQKQLQEKGYA
notes: integrin alpha-D (CD11d) αI domain, P145-A334; plasmid bought from ATG:Biosynthetics; also called αDI HA; HA αDI
